According to US20110262452A1 (Genentech, published 2011):

What was measured:
[1] = target: mouse hepsin extracellular domain (Ser45-Pro416) with C-terminal His-tag (mouse) (UniProt O35453)
[2] = target: T1, Hepsin (human), recombinant, active (human, UniProt P05981 45-417); assay: cell-based or functional assay
[3] = target: T1, Hepsin (human), recombinant, active; assay: cell-based or functional assay; remark: listed apart in the source
[4] = target: T1, Hepsin (human), recombinant, active; assay: enzyme inhibition, S2765 substrate (ratio of Ki app)
Procedure: (§1) Enzymatic assays with synthetic substrates: Fab25, IgG25, control Fab, or control IgG were incubated with hepsin (1 nM for human and 2 nM for mouse hepsin) in Hepes buffer (20 mM Hepes, pH 7.5, 150 mM NaCl, 5 mM CaCl₂, 0.01% Triton X-100) for 40 min at room temperature. For experiments with 3,4-dichloro-isocoumarin (DCI), hepsin (1 nM) was incubated with DCI in Hepes buffer containing 0.5% DMSO for 40 min. S2765 was added (final concentration of 0.2 mM) and the linear rates of the increase in absorbance at 405 nm measured on a kinetic microplate reader (Versamax, Molecular Devices, Sunnyvale, Calif.). Data were expressed as fractional enzyme activity (vᵢ/vₒ) and fitted to a four parameter regression curve fitting program (Kaleidagraph Version 3.6, Synergy Software) to determine the IC₅₀ values. Values are the average±SD of three independent experiments. Kᵢ^app values for Fab25 and IgG25 were calculated by fitting the data to the equation for tight binding inhibition systems (Morrison, 1969; Olivero et al., 2005).

[5] = target: T1, Hepsin (human), recombinant, active; assay: isothermal titration calorimetry, Fab25 titrated into active hepsin
Procedure: FIG. 18: Isothermal titration calorimetric experiment of Fab25 binding to active hepsin. The association reaction is exothermic and the stoichiometry of binding is 1:1 as expected.
Isothermal Titration calorimetry: TC experiments were performed on a ITC₂₀₀ instrument (GE healthcare). Fab25 and hepsin were purified separately on a size exclusion chromatographic column (Superdex S200, GE healthcare), using a buffer containing 50 mM HEPES pH 7.5 and 150 mM NaCl. The sample cell (204 μl) was loaded with hepsin (14 μM) and the Fab25 concentration in the syringe was 138 μM. A titration experiment typically consisted of 20 injections, each of 2 μL volume and 180 sec duration, with a 3 min interval between additions. The stirring rate was 1000 rpm. Raw data were integrated, corrected for nonspecific heats, normalized for concentration, and analyzed according to a 1:1 binding model assuming a single set of identical binding sites. (The isothermal titration curve was registered and analyzed using ORIGIN software provided with the ITC instrument. The data were integrated to provide a titration curve; and, by using a nonlinear least-squares fit, the binding constant KA, the heat of binding (ΔH), and the stoichiometry of binding were extracted from the curve.

[6] = target: T1, Hepsin (human), recombinant, active; assay: BLI (Octet RED), biotinylated hepsin on streptavidin sensor, Fab25 in solution, 1:1 fit
Procedure: Fab25 binding to hepsin: An Octet-RED system equipped with streptavidin SBC biosensor tips was purchased from ForteBio (Menlo Park, Calif.). Prior to the start of the experiment, the sensor tips were pre-wet for 15 minutes at 25° C. in a buffer containing 50 mM Hepes pH 7.5, 150 mM NaCl and 0.05% tween-20. Biotinylated hepsin (7.5 μg/ml) was captured on to the streptavidin sensor for 5 minutes with agitation at 1000 rpm. The sensors were briefly washed in buffer before dipping them on to the sample wells containing Fab25 (2-fold serial dilution starting from 200 nM) and buffer control. Association was monitored for 10 minutes and dissociation was followed for 30 minutes. The data was fit to 1:1 binding model using Octet-RED analysis software.

[7] = target: mouse hepsin extracellular domain (Ser45-Pro416) with C-terminal His-tag (mouse) (UniProt O35453); assay: enzyme inhibition, S2765 substrate, tight binding inhibition fit (Ki app); Fab25, murine hepsin
[8] = target: T1, Hepsin (human), recombinant, active; assay: enzyme inhibition, S2765 substrate, tight binding inhibition fit (Ki app); Fab25, human hepsin
Procedure: as §1

pro-hepsin = pro-hepsin (UniProt P05981 45-417, limits assumed); assay: SPR (BIAcore 3000), Ab25 captured on CM5 chip, pro-hepsin injected, steady state analysis
Sequence of pro-hepsin (P05981 45-417 limits assumed): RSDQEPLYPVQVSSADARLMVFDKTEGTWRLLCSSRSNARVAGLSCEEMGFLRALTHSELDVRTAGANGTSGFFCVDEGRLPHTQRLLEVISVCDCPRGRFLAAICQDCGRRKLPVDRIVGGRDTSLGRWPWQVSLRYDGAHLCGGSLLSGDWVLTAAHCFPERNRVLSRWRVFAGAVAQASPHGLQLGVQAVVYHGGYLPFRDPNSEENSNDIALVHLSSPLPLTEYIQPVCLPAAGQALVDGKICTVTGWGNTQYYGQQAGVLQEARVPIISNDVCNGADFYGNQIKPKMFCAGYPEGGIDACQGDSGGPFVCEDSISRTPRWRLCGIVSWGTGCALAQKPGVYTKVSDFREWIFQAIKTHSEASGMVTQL
Procedure: (§2) FIG. 17: A. Surface plasmon resonance was used to measure the binding affinity of Ab25 with active human hepsin. Serial dilutions of hepsin (0.39 nM to 200 nM) were injected to a CM5 biosensor chip with captured Ab25 for 3 minutes and the dissociation was monitored for 15 minutes. […] Serial dilutions of pro-hepsin (195 nM to 80 μM) were injected to a CM5 biosensor chip with captured Ab25 for 2 minutes.
(§3) Binding of Ab25 to hepsin by surface plasmon resonance: Surface plasmon resonance measurements were performed on a BIAcore™-3000 instrument (GE Health Care, NJ) to determine binding affinity of the Ab25. Rabbit anti-human IgG were chemically immobilized (amine coupling) on CM5 biosensor chips and Ab25 was captured to give approximately 350 response units (RU). For kinetics measurements, two-fold serial dilutions of active hepsin (1 nM to 500 nM) were injected in HBS-P buffer at 25° C. with a flow rate of 30 μl/min. Association rates (kₐ) and dissociation rates (kd) were obtained by using a simple one-to-one Langmuir binding model (BIA-Evaluation) and the equilibrium dissociation constants (KD) were calculated (kd/kₐ). Due to rapid kinetics, a steady state measurement was used to determine the affinity of pro-hepsin with Ab25. […] The values of Req were calculated and plotted individually against C (concentration of pro-hepsin) using BIA-Evaluation to determine KD.

[9] = target: T1, Hepsin (human), recombinant, active; assay: SPR (BIAcore 3000), Ab25 captured by anti-human IgG on CM5 chip, active human hepsin injected, 1:1 fit
Procedure: as §2, §3

[10] = target: T1, Hepsin (human), recombinant, active; assay: enzyme inhibition, S2765 substrate, tight binding inhibition fit (Ki app); IgG25, not Fab; human hepsin
Procedure: as §1

[11] = target: T1, Hepsin (human), recombinant, active; assay: phage competition ELISA: biotin-hepsin immobilised on NeutrAvidin plates, bound Fab25-phage detected with anti-M13-HRP, KD1 titrated as competitor of Fab25-phage

T1 sequence (P05981 45-417 limits assumed): as above

B1: anti-hepsin antibody Fab25 (Fab, V domains shown)
VH: EVQLVESGGGLVQPGGSLRLSCAASGFNFSYSYMHWVRQAPGKGLEWVASIYSYYGSTYYADSVKGRFTISADTSKNTAYLQMNSLRAEDTAVYYCARSDSWSYKSGYTQKIYSKGLDYWGQGTLVTVSS
VL: DIQMTQSPSSLSASVGDRVTITCRASQSVSSAVAWYQQKPGKAPKLLIYSASSKGVPSRFSGSRSGTDFTLTISSLQPEDFATYYCQQYYSSYYLLTFGQGTKVEIK
notes: also called HpsFab25; Clone 25 (Fab form)
[1]
  IC50 (read off the curve): 300 nM
[2]
  IC50 of hepsin-mediated pro-uPA activation (two-stage enzymatic assay): 3.3 nM
[3]
  IC50 (read off the curve): ~5 nM
[4]
  fold more potent inhibition than of murine hepsin: ~80 fold
[5]
  Kd: 6.1 nM
  stoichiometry of binding: 1 Fab25 per hepsin
[6]
  Kd: 2.55 nM
[7]
  Ki: 329 nM
[8]
  Ki: 4.1 nM

B2: anti-hepsin antibody IgG25 (antibody, V domains shown)
VH: EVQLVESGGGLVQPGGSLRLSCAASGFNFSYSYMHWVRQAPGKGLEWVASIYSYYGSTYYADSVKGRFTISADTSKNTAYLQMNSLRAEDTAVYYCARSDSWSYKSGYTQKIYSKGLDYWGQGTLVTVSS
VL: DIQMTQSPSSLSASVGDRVTITCRASQSVSSAVAWYQQKPGKAPKLLIYSASSKGVPSRFSGSRSGTDFTLTISSLQPEDFATYYCQQYYSSYYLLTFGQGTKVEIK
notes: also called Ab25; mab 25
pro-hepsin
  Kd: 5520 nM
[9]
  Kd: 10.6 nM
[10]
  Ki: 11.3 nM

B3: Kunitz domain inhibitor-1 (KD1) derived from HGFA-inhibitor-1 (HAI-1) (other, UniProt O43278 246-303, looked up)
chain: TEDYCLASNKVGRCRGSFPRWYYDPTEQICKSFVYGGCLGNKNNYLREEECILACRGV
[11]
  IC50 (read off the curve): ~0.2 nM
